Results on 1 protein are retold here after PMC6002512, “The Defense-Related Isoleucic Acid Differentially Accumulates in Arabidopsis Among Branched-Chain Amino Acid-Related 2-Hydroxy Carboxylic Acids” (Frontiers in Plant Science, 2018).

Common to all, as to assay type: biochemical, Arabidopsis thaliana
Substrate in data set [1]: CC(C)CC(O)C(=O)O
In words: HPLC with radiodetection of glucosylated product, non-linear regression. Conditions: 2 mM 14C-UDP-glucose, 0.1 M Tris-HCl pH 7.5, 30°C. The text has this:
(§1) HPLC with radiodetection of glucosylated product, non-linear regression on UGT76B1

Substrate in data set [2]: CC[C@H](C)[C@H](O)C(=O)O
The data set is described as above. Conditions: 2 mM 14C-UDP-glucose, 0.1 M Tris-HCl pH 7.5, 30°C.
Excerpt: as §1

Substrate in the data set “purified protein”: O=C(O)c1ccccc1O
The data set can be described thus: purified protein. Conditions: 2 mM UDP-glucose, 0.1 M Tris-HCl pH 7.5, 30°C.

B1: UGT76B1 (Arabidopsis thaliana) (protein)
chain: METRETKPVIFLFPFPLQGHLNPMFQLANIFFNRGFSITVIHTEFNSPNSSNFPHFTFVSIPDSLSEPESYPDVIEILHDLNSKCVAPFGDCLKKLISEEPTAACVIVDALWYFTHDLTEKFNFPRIVLRTVNLSAFVAFSKFHVLREKGYLSLQETKADSPVPELPYLRMKDLPWFQTEDPRSGDKLQIGVMKSLKSSSGIIFNAIEDLETDQLDEARIEFPVPLFCIGPFHRYVSASSSSLLAHDMTCLSWLDKQATNSVIYASLGSIASIDESEFLEIAWGLRNSNQPFLWVVRPGLIHGKEWIEILPKGFIENLEGRGKIVKWAPQPEVLAHRATGGFLTHCGWNSTLEGICEAIPMICRPSFGDQRVNARYINDVWKIGLHLENKVERLVIENAVRTLMTSSEGEEIRKRIMPMKETVEQCLKLGGSSFRNLENLIAYILSF
notes: full coding region including the 5' ATG codon cloned into pDEST15; N-terminal GST fusion; recombinant
As usually defined, the Km is the concentration of substrate that gives half-maximal velocity. In general, kcat refers to the maximal rate divided by the concentration of active sites. Broadly, the kcat/Km is the turnover number divided by the Michaelis constant. With B1, in data set [1], the Michaelis constant (Km) was determined as 461 ± 79 µM, the kcat amounted to 0.582 ± 0.035 s⁻¹ and the kcat/Km came out at 1260 M⁻¹ s⁻¹. In addition, in data set [2], the Km stood at 472 ± 97 µM, the kcat worked out at 0.914 ± 0.067 s⁻¹ and the kcat/Km came to 1940 M⁻¹ s⁻¹. Moreover, in “purified protein”, the Km amounted to 151 ± 28 µM, the kcat was 0.331 ± 0.016 s⁻¹ and the kcat/Km turned out to be 2200 M⁻¹ s⁻¹.
